Results on one substance are retold here after paper PMC11053023, “Mechanism of Ψ-Pro/C-degron recognition by the CRL2^FEM1B ubiquitin ligase” (Nature Communications, 2024).

Broadly, the stoichiometry N is the number of molecules, sites or subunits per partner or assembly.

In the assay the target is FEM1B-EB-EC ternary complex (human) (UniProt Q9UK73). Briefly: SEC; peaks of the purified FEM1B-EB-EC complexes (Supplementary Fig. 1g); how the masses were found is not given. In general terms: Size exclusion chromatography separates by hydrodynamic size, large species first.

Substance “FEM1B-EB-EC ternary complex (from UniProt Q9UK73 1-627; Q15370 1-118; Q15369 17-112)” had a stoichiometry N of 2.
